In US20260250322A1, “NEW PEPTIDES AS SELECTIVE IL-23 RECEPTOR INHIBITORS” (SANOFI, priority 2023, published 2026):
Numbered stars: 1 amine (or outer) side, 2 acyl side, 3 side chain; on linkers, the order of the positions; unused ones are H or OH. Bridge positions count the residues as written; N and C are the ends. Square brackets hold non-standard residues; d marks the D form. Primed or numbered codes have the meaning given here. Phe(4-OMe) = Yme, 4-methoxy-L-phenylalanine (O-methyl-tyrosine), COc1ccc(C[C@H](N[*:1])C(=O)[*:2])cc1; Tyr(Me) = Yme = 4-methoxy-L-phenylalanine (O-methyl-tyrosine), COc1ccc(C[C@H](N[*:1])C(=O)[*:2])cc1; Tyr(Me)″ = O-methyl-tyrosine (4-methoxy-phenylalanine), COc1ccc(C[C@H](N[*:1])C(=O)[*:2])cc1; 2Nal = N[C@@H](Cc1ccc2ccccc2c1)C(=O)O; Agb = N=C(N)NCC[C@H](N)C(=O)O; dOrn = NCCC[C@@H](N)C(=O)O; Thp = NC1(C(=O)O)CCOCC1; Aib = CC(C)(N)C(=O)O

T1: recombinant human IL-23R-Fc chimera (human, UniProt Q5VWK5 24-353, limits assumed)
T1 construct: Recombinant reagent; also called interleukin-23 receptor; not shown: detected with goat anti-hu-IgG1-HRP antibody
T1 sequence (looked up): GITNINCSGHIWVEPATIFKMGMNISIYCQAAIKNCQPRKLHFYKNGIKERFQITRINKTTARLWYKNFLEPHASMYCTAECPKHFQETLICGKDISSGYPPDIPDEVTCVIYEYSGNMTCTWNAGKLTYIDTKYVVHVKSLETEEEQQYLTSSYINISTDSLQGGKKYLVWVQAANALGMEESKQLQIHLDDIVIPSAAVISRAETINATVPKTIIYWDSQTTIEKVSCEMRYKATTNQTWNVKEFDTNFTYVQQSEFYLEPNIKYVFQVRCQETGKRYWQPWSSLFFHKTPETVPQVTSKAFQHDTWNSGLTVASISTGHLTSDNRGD


Molecular target: T1, recombinant human IL-23R-Fc chimera
Test: competition ELISA: coated human IL-23, IL-23R-Fc 0.1 ug/ml, peptide titrated
Protocol: Antagonism of peptide compounds for human interleukin-23 receptor inhibitors, was determined by an ELISA assay.
A 384-well plate was coated with 50 μl/well of human IL-23 at a final concentration of 1 μg/ml and incubated overnight at 4° C. The wells were washed 3 times with 80 μl wash buffer and blocked with 80 μl blocking buffer for 60 minutes at room temperature and washed again. 20 μl of serially diluted test peptides was added to each well and subsequently 20 μl of recombinant human IL-23R-Fc chimera at final concentration of 0.1 μg/ml. The plate was incubated for 60 minutes at room temperature. After the wells were washed, bound IL-23R-Fc was detected with goat anti-hu-lgG1-HRP antibody. Signals were visualized with QuantaBlu Fluorogenic Peroxidase Substrate.

Binder	IC50 [nM]
Ac-[dOrn]NTWQR[Tyr(Me)][2Nal][Aib]DNN-NH2 (lactam 1-10; SMILES COc1ccc(C[C@@H]2NC(=O)[C@H](CCCNC(=N)N)NC(=O)[C@H](CCC(N)=O)NC(=O)[C@H](Cc3c[nH]c4ccccc34)NC(=O)[C@H]([C@@H](C)O)NC(=O)[C@H](CC(N)=O)NC(=O)[C@H](NC(C)=O)CCCNC(=O)C[C@@H](C(=O)N[C@@H](CC(N)=O)C(=O)N[C@@H](CC(N)=O)C(N)=O)NC(=O)C(C)(C)NC(=O)[C@H](Cc3ccc4ccccc4c3)NC2=O)cc1) [peptide compound SEQ ID NO: 27]	19.7
Ac-[dK]NTWQA[Phe(4-OMe)][2Nal][Thp]DNN-NH2 (lactam 1-10; SMILES COc1ccc(C[C@@H]2NC(=O)[C@H](C)NC(=O)[C@H](CCC(N)=O)NC(=O)[C@H](Cc3c[nH]c4ccccc34)NC(=O)[C@H]([C@@H](C)O)NC(=O)[C@H](CC(N)=O)NC(=O)[C@H](NC(C)=O)CCCCNC(=O)C[C@@H](C(=O)N[C@@H](CC(N)=O)C(=O)N[C@@H](CC(N)=O)C(N)=O)NC(=O)C3(CCOCC3)NC(=O)[C@H](Cc3ccc4ccccc4c3)NC2=O)cc1) [peptide compound SEQ ID NO: 51]	0.78
Ac-[dK]NTWQ[Agb][Phe(4-OMe)][2Nal][Aib]DNN-NH2 (lactam 1-10; SMILES COc1ccc(C[C@@H]2NC(=O)[C@H](CCNC(=N)N)NC(=O)[C@H](CCC(N)=O)NC(=O)[C@H](Cc3c[nH]c4ccccc34)NC(=O)[C@H]([C@@H](C)O)NC(=O)[C@H](CC(N)=O)NC(=O)[C@H](NC(C)=O)CCCCNC(=O)C[C@@H](C(=O)N[C@@H](CC(N)=O)C(=O)N[C@@H](CC(N)=O)C(N)=O)NC(=O)C(C)(C)NC(=O)[C@H](Cc3ccc4ccccc4c3)NC2=O)cc1) [peptide compound SEQ ID NO: 39]	1.46
Ac-[dK]NTWQA[Tyr(Me)″][2Nal]RDNN-NH2 (lactam 1-10; SMILES COc1ccc(C[C@@H]2NC(=O)[C@H](C)NC(=O)[C@H](CCC(N)=O)NC(=O)[C@H](Cc3c[nH]c4ccccc34)NC(=O)[C@H]([C@@H](C)O)NC(=O)[C@H](CC(N)=O)NC(=O)[C@H](NC(C)=O)CCCCNC(=O)C[C@@H](C(=O)N[C@@H](CC(N)=O)C(=O)N[C@@H](CC(N)=O)C(N)=O)NC(=O)[C@H](CCCNC(=N)N)NC(=O)[C@H](Cc3ccc4ccccc4c3)NC2=O)cc1, synthetic macrolactam) [peptide compound SEQ ID NO: 47]	1.34
